Source: patent US20240117030A1 (Pfizer, published 2024)
Like-named read-outs stand apart in the source and are kept apart here. Blank lines part the entries; values can stand above or below the binder they belong to.

Columns and labels:
human IL-33 = target: T1, human IL-33 (human, UniProt O95760 112-270, limits assumed); test: KinExA solution affinity, fixed antigen format
T1 construct: Limits stated for the R&D protein; also called human IL-33 WT; reduced human IL-33
T1 sequence (looked up): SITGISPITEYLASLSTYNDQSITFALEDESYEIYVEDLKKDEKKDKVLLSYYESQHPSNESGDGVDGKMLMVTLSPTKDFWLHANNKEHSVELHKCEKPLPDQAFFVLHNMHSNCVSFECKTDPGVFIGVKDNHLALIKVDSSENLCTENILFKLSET
Protocol: Samples were prepared in PBS containing 0.1% sodium azide and 1.0 mg/mL bovine serum albumin (BSA). […] The fixed active binding concentrations (ABC) of biotinylated human IL 33 used were 10 pM and 100 pM. Biotinylated human IL-33 wild-type (WT) was reduced with 3 mM Dithiothreitol (DTT) for 2 hours at room temperature before use. The samples were allowed to equilibrate for at least 72 hours at room temperature before passing them through a flow cell that contained the test article anti-IL-33 antibody being evaluated adsorbed to polymethylmethacrylate (PMMA) beads (Sapidyne). […] Data analysis was performed with KinExA Pro software version 4.3.11 (Sapidyne). […] The ‘drift correction’ fitting option was used when responses varied between replicate injections. Two curves were obtained in independent experiments and analyzed using the ‘n-curve analysis’ tool to obtain global best fit values for the KD and active concentration of IL-33 cytokine. The software reports each best fit value along with a 95% confidence interval.

human IL-4 [1] = target: T2, human IL-4 (human, UniProt P05112 25-153); test: cell-based or functional assay
T2 sequence (looked up): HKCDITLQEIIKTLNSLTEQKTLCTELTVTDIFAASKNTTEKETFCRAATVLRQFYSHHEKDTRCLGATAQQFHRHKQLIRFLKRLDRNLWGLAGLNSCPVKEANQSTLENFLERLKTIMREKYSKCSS

human IL-4 [2] = target: T2, human IL-4; test: cell-based or functional assay; remark: listed apart in the source
recombinant human IL-4 [3] = target: T3, recombinant human IL-4 (human, UniProt P05112 25-153); test: KinExA, fixed antigen format
T3 construct: Recombinant cytokine from several sources (R&D Systems, Syngene); treated as one molecule; also called rHu IL-4
T3 sequence (looked up): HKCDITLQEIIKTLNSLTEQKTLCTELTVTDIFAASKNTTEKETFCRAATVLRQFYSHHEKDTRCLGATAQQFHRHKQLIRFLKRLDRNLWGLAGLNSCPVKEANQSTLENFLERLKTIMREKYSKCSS
Protocol: (§1) Samples were prepared in PBS containing 0.1% sodium azide and 1.0 mg/ml BSA. The fixed antigen assay method was used to determine binding affinity. […] Each trispecific and IL-4 cytokine were equilibrated for at least 72 hours at room temperature, then passed through a flow cell containing Polymethylmethacrylate (PMMA) beads coated with anti-hIL-4 Ab-0002 (Pfizer) that contains the same IL-4 binding domain as the trispecifics. […] Data analysis was performed with KinExA Pro software version 4.3.11 (Sapidyne). […] The ‘drift correction’ fitting option was used when responses varied between replicate injections. Two curves were obtained in independent experiments and analyzed using the ‘n-curve analysis’ tool to obtain global best fit values for the KD and active concentration of IL-4 cytokine. The software reports each best fit value along with a 95% confidence interval.

[4] = target: T4, recombinant cynomolgus monkey IL-4 (cynomolgus monkey, UniProt P79339 25-153); test: KinExA, fixed antigen format
T4 construct: also called Cyno IL-4
T4 sequence (looked up): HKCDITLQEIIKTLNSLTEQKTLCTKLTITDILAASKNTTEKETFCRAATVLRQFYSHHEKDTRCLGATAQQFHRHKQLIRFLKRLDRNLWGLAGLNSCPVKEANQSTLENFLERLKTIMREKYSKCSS
Protocol: as §1

recombinant human IL-13 [5] = target: T5, recombinant human IL-13 (human, UniProt P35225 35-146); test: cell-based or functional assay
T5 sequence (P35225 35-146 limits assumed): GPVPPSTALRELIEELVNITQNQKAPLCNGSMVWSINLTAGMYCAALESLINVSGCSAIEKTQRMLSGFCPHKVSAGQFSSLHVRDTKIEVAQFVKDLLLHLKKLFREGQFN

recombinant human IL-4 [6] = target: T3, recombinant human IL-4; test: cell-based or functional assay
[7] = target: T4, recombinant cynomolgus monkey IL-4; test: cell-based or functional assay
IL-33 mm2 = target: T6, IL-33 mm2 (human, UniProt O95760 112-270, limits assumed); test: cell-based or functional assay
T6 sequence (looked up): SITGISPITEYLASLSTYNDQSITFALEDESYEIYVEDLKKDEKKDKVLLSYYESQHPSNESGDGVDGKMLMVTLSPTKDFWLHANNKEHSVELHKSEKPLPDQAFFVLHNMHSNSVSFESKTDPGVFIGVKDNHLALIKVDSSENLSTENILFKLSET

recombinant human IL-33 [8] = target: T7, recombinant human IL-33 (human, UniProt O95760 112-270, limits assumed); test: cell-based or functional assay
T7 sequence (looked up): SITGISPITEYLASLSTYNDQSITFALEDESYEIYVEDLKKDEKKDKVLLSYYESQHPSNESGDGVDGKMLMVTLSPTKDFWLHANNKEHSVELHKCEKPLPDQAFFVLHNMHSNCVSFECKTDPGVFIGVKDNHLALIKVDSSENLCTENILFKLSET

recombinant human IL-4 [9] = target: T3, recombinant human IL-4; test: cell-based or functional assay; remark: listed apart in the source
[10] = target: T8, recombinant cynomolgus monkey IL-13 (cynomolgus monkey, UniProt Q0PW92 19-132); test: KinExA, fixed antigen format
T8 construct: also called Cyno IL-13
T8 sequence (Q0PW92 entry or part of it limits assumed): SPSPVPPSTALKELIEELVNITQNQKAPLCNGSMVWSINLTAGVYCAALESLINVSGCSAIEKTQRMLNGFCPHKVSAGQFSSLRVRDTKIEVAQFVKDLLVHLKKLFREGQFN
Protocol: (§2) Samples were prepared in PBS containing 0.1% sodium azide and 1.0 mg/ml BSA. The fixed antigen assay method was used to determine binding affinity. […] Data analysis was performed with KinExA Pro software version 4.3.11 (Sapidyne). […] The ‘drift correction’ fitting option was used when responses varied between replicate injections. Two curves were obtained in independent experiments and analyzed using the ‘n-curve analysis’ tool to obtain global best fit values for the KD and active concentration of IL-13 cytokine. The software reports each best fit value along with a 95% confidence interval.

recombinant human IL-13 [11] = target: T5, recombinant human IL-13; test: KinExA, fixed antigen format
Protocol: as §2

[12] = target: T8, recombinant cynomolgus monkey IL-13; test: cell-based or functional assay
recombinant human IL-13 [13] = target: T5, recombinant human IL-13; test: cell-based or functional assay; remark: listed apart in the source
recombinant human IL-4 [14] = target: T3, recombinant human IL-4; test: cell-based or functional assay; remark: listed apart in the source
recombinant human IL-13 [15] = target: T5, recombinant human IL-13; test: cell-based or functional assay; remark: listed apart in the source
recombinant human IL-33 [16] = target: T7, recombinant human IL-33; test: cell-based or functional assay; remark: listed apart in the source
recombinant human IL-13 [17] = target: T5, recombinant human IL-13; test: cell-based or functional assay; remark: listed apart in the source
recombinant human IL-4 [18] = target: T3, recombinant human IL-4; test: cell-based or functional assay; remark: listed apart in the source

fold higher affinity relative to the IL33-0352 benchmark antibody (human IL-33): ~3 fold
fold higher affinity than IL33-0232 antibody (human IL-33): ~14 fold
B1: IL33-0726 (antibody, human IgG1, kappa, V domains shown)
VH: EVQLVESGGGLVQPGGSLRLSCAASGFTFSSYWMYWVRQAPGKGLEWVAAITPNAGEDYYPESVKGRFTISRDNAKNSLYLQMNSLRAEDTAVYYCARGQYYYTKYSLGYWGQGTLVTVSS
VL: DIQMTQSPSSLSASVGDRVTITCRASQPIHNHLDWYQQKPGKAPKLLIYFGKNLQEGVPSRFSGSGSGTDFTLTISSLQPEDFATYYCFQYKKGWSFGGGTKVEIKR
notes: also called IL13433-0726; IL33-0726 IgG

pSTAT6 IC50 [pM] (human IL-4 [1]): 125 pM
pSTAT6: Fold bioactivity relative to IL4-1284 (human IL-4 [2]): 1 fold
pSTAT6: Fold bioactivity relative to IL4-1285 (human IL-4 [2]): 0.6 fold
pSTAT6 IC50 [pM] (human IL-4 [2]): 125 pM
B2: IL4-1284 (antibody, human IgG1, kappa, V domains shown)
VH: QVTLRESGPALVKPTQTLTLTCTFSGFSLSTSGMGVSWIRQPPGKGLEWLAHIYWDDDKRYNPSLKSRLTISKDTSRNQVVLTMTNMDPVDTATYYCARRETVFYWYFDVWGRGTPVTVSS
VL: DIVMTQSPDSLAVSLGERATINCKASQSVDYDGDSYMNWYQQKPGQPPKLLIYAASNLESGVPDRFSGSGSGTDFTLTISSLQAEDVAVYYCQQSNEDPPRFGGGTKVEIKR

Kd (recombinant human IL-4 [3]): 0.477 pM
Kd [4]: 2.96 pM
IC50 (median), IL-13 induced CD23 expression on human monocytes (recombinant human IL-13 [5]): 11.7 pM
IC50 (median), CD23 expression, Human Whole Blood (recombinant human IL-4 [6]): 23.2 pM
IC50 (median), CD23 expression, Peripheral Blood Monocytes (recombinant human IL-4 [6]): 10 pM
IC50 (median), CD23 expression, Human Whole Blood [7]: 32.1 pM
IC50 (median), CD23 expression, Peripheral Blood Monocytes [7]: 13.6 pM
IC50 (mean), IFNg Whole Blood (IL-12 plus IL-33 mm2-Cys) (IL-33 mm2): 12.5 pM
IC50 (mean), HEK-Blue IL-33 SEAP (recombinant human IL-33 [8]): 13.4 pM
IC50 (median), IL-4 induced CD23 expression on human monocytes (recombinant human IL-4 [9]): 10 pM
Kd [10]: 0.866 pM
Kd (recombinant human IL-13 [11]): 0.612 pM
IC50 (median), CD23 expression, Human Whole Blood [12]: 50.5 pM
IC50 (median), CD23 expression, Peripheral Blood Monocytes [12]: 52.8 pM
IC50 (median), CD23 expression, Human Whole Blood (recombinant human IL-13 [13]): 16.1 pM
IC50 (median), CD23 expression, Peripheral Blood Monocytes (recombinant human IL-13 [13]): 11.7 pM
IL-4 Induced CD23 Expression, potency of cytokine neutralization (recombinant human IL-4 [14]): 13 pM
IL-13 Induced CD23 Expression, potency of cytokine neutralization (recombinant human IL-13 [15]): 9.35 pM
IL-33 WT Activation of SEAP Reporter Cells, potency of cytokine neutralization (recombinant human IL-33 [16]): 13 pM
IC50 (median), IL-13 induced CD23 expression on human monocytes (recombinant human IL-13 [17]): 11.7 pM
IC50 (median), IL-4 induced CD23 expression on human monocytes (recombinant human IL-4 [18]): 10 pM
B3: IL13433-1258 (other)
heavy: EVQLVESGGGLVQPGGSLRLSCAASGFTFSSYWMYWVRQAPGKGLEWVAAITPNAGEDYYPESVKGRFTISRDNAKNSLYLQMNSLRAEDTAVYYCARGQYYYTKYSLGYWGQGTLVTVSSASTKGPSVFPLAPSSKSTSGGTAALGCLVKDYFPEPVTVSWNSGALTSGVHTFPAVLQSSGLYSLSSVVTVPSSSLGTQTYICNVNHKPSNTKVDKKVEPKSCRKTHTCPPCPAPEAAGAPSVFLFPPKPKDTLMISRTPEVTCVVVDVSHEDPEVKFNWYVDGVEVHNAKTKPREEQYNSTYRVVSVLTVLHQDWLNGKEYKCKVSNKALPAPIEKTISKAKGQPREPQVYTLPPSREEMTKNQVSLTCLVKGFYPSDIAVEWESNGQPENNYKTTPPVLDSDGSFFLYSRLTVDKSRWQQGNVFSCSVLHEALHSHYTQKSLSLSPGK
chain 1: DIQMTQSPSSLSASVGDRVTITCKASESVDHFGWSLVHWYQQKPGKAPKLLIYRASNLESGVPSRFSGSGSGTDFTLTISSLQPEDFATYYCQQSNEDPWTFGGGTKVEIKRTVAAPSVFIFPPSDEQLKSGTASVVCLLNNFYPREAKVQWKVDNALQSGNSQESVTEQDSKDSTYSLSSTLTLSKADYEKHKVYACEVTHQGLSSPVTKSFNRGECGGGGSEVTLRESGPALVKPTQTLTLTCTFSGFSLSNFGEGLSWIRQPPGKGLEWLAHIYWDDDKRYNPSLKSRLTISKDTSRNQVVLTMTNMDPVDTATYYCARRETVFYWYFDVWGQGTTVTVSSASTKGPSVFPLAPSSKSTSGGTAALGCLVKDYFPEPVTVSWNSGALTSGVHTFPAVLQSSGLYSLSSVVTVPSSSLGTQTYICNVNHKPSNTKVDKKVEPKSCEKTHTCPPCPAPEAAGAPSVFLFPPKPKDTLMISRTPEVTCVVVDVSHEDPEVKFNWYVDGVEVHNAKTKPREEQYNSTYRVVSVLTVLHQDWLNGKEYKCKVSNKALPAPIEKTISKAKGQPREPQVYTLPPSREEMTKNQVSLTCEVKGFYPSDIAVEWESNGQPENNYKTTPPVLDSDGSFFLYSKLTVDKSRWQQGNVFSCSVLHEALHSHYTQKSLSLSPGK
light 1: DIQMTQSPSSLSASVGDRVTITCRASQPIHNHLDWYQQKPGKAPKLLIYFGKNLQEGVPSRFSGSGSGTDFTLTISSLQPEDFATYYCFQYKKGWSFGGGTKVEIKRTVAAPSVFIFPPSDEQLKSGTASVVCLLNNFYPREAKVQWKVDNALQSGNSQESVTEQDSKDSTYSLSSTLTLSKADYEKHKVYACEVTHQGLSSPVTKSFNRGEC
light 2: DIQMTQSPSSLSASVGDRVTITCRASQSVDEEGDSYMNWYQQKPGKAPKLLIYAASNLESGVPSRFSGSGSGTDFTLTISSLQPEDFATYYCQQSNKDPPTFGGGTKVEIKRTVAAPSVFIFPPSDEQLKSGTASVVCLLNNFYPREAKVQWKVDNALQSGNSQESVTEQDSKDSTYSLSSTLTLSKADYEKHKVYACEVTHQGLSSPVTKSFNRGEC
chain 2: EVQLVESGGGLVQPGGSLRLSCAASGFTFSSYAMSWVRQAPGKGLEWVASISSGDTTYYPDSVKGRFTISRDNAKNSLYLQMNSLRAEDTAVYYCARNEGYYFGLTLWGQGTLVTVSSASTKGPSVFPLAPSSKSTSGGTAALGCLVKDYFPEPVTVSWNSGALTSGVHTFPAVLQSSGLYSLSSVVTVPSSSLGTQTYICNVNHKPSNTKVDKKVEPKSC
notes: Trispecific Tri-Fab-Fc, dual cell, EE/RR, LS; Chains in order: SFab HC(3), DFab LC(1)-HC(2), SFab LC(3), DFab LC(2), modified Fd(1)
